In paper PMC8882607 (Journal of Molecular Biology, 2022):

Biological target: NTF2-like domain of human G3BP1 (residues 1-139) (human, UniProt Q13283 1-139)
Test: ITC

Sequence of NTF2-like domain of human G3BP1 (residues 1-139) (Q13283 1-139): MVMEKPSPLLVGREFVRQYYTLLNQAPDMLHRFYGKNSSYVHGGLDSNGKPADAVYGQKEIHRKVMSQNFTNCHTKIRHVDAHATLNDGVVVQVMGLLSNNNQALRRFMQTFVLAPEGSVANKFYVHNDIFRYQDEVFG

With MSDNGPQNQRNAPRITFGGPSDSTG [SARS-CoV-2 N_(1–25) peptide (residues 1-25 of the N protein)] the dH was -17.6 kcal/mol.
